Entries after “also recorded” stand apart in the source; their conditions may differ.
Tests used:
[1] = molecular target: T1, human HER2 (hHER2) recombinant protein (Homo sapiens, UniProt P04626); experiment: Biolayer interferometry (BLI) affinity assay on protein A biosensors coated with hHER2; conditions: 1:1 binding fit model
T1 construct: purchased R&D Systems
Procedure: (§1) Affinity experiments were performed by Biolayer Interferometry (BLI) assay, using an Octet System and Protein A biosensors (ForteBio). Recombinant human protein hHER2 was purchased from R&D Systems (Minneapolis, US).
(§2) The affinity of the polypeptides of the invention for the target HER2 was measured by Biolayer interferometry assay. To this purpose, the protein A biosensors (ForteBio) were coated with human HER2 (hHER2) recombinant protein. After a brief wash with PBS, the coated sensor was assayed versus the affitin Aff02-0 at different concentrations (i.e. […], 500, 250, 125, 62.5, 31.3, 15.6 and 0 nM).
(§3) A curve fitting analysis was then performed in order to determine the dissociation equilibrium constant. The sensorgrams were analyzed using the Octet Data Analysis software 8.2 (ForteBio) with a 1:1 binding fit model to determine the dissociation equilibrium constant (Kd) and the related association and dissociation rate constants (kon and koff) with R^2 value assessing the fitting quality.
as §2, with “IRDye800CW-Aff02 conjugate to” for “polypeptides of the invention for”, “IRDye800CW-Aff02 conjugate” for “affitin Aff02-0”, “1000, 100, 10, 1, 0.1 ng/mL).” for “500, 250, 125, 62.5, 31.3, 15.6 and 0 nM).”
A steady state analysis was performed in order to determine the dissociation equilibrium constant. The sensorgrams were analyzed using the Octet Data Analysis software 8.2 (ForteBio) with a 1:1 binding fit model to determine the dissociation equilibrium constant (Kd).

[2] = molecular target: T2, recombinant human protein hHER2 (R&D Systems) (human, UniProt P04626 23-652); experiment: BLI (Octet), hHER2 on Protein A biosensors, 1:1 fit
T2 construct: also called human HER2 (hHER2) recombinant protein
Procedure: as §1, §2
as §3, with “(kₒₙ” for “(kon”, “R²” for “R^2”

[3] = system: human (HSA), murine (MSA) and bovine (BSA) serum albumin; experiment: ELISA control of binding to serum albumins during selection
Text: (§4) To selectively target HER2 receptor, a library of affitins has been enriched against the target by several consecutive rounds of screening (up to 6 rounds). The enrichment of anti-HER2 affitins has been followed after any selection round by ELISA assay monitoring, also controlling the condition of negligible binding to human (HSA), murine (MSA) and bovine (BSA) serum albumin.

[4] = system: SK-BR-3 breast adenocarcinoma cell line (overexpressing HER2 receptor); experiment: Cell internalization assay (viability with Pe38 fusion), HER2 overexpressing cells; type: cell-based
Procedure: (§5) The cells internalization of Aff01 was evaluated using a dedicated cell-based assay. Briefly, Aff01 was tagged with SEQ ID NO: 3 (i.e. forming sequence Aff02-0) and then fused to a truncated portion of Pseudomonas exotoxin A, wherein the cell internalization domain of the toxin is removed, thus forming a final peptide with the sequence as set out in SEQ ID NO: 5. Such truncated form (Pe38) needs to be internalized by means of the Aff01 to keep its cytotoxic activity.
(§6) To test internalization, then, the viability of the breast adenocarcinoma cell line SK-BR-3 (overexpressing HER2 receptor) and of the breast cancer cell line MCF-7 (low expressing HER2 receptor) was measured at different nanofitin concentrations.

[5] = molecular target: HER2 (Homo sapiens, UniProt P04626); experiment: ELISA monitoring of anti-HER2 affitin selection; type: binding; conditions: end of selection process
Text: as §4

[6] = system: MCF-7 breast cancer cell line (low expressing HER2 receptor); experiment: Cell internalization assay (viability with Pe38 fusion), HER2 low expressing cells; type: cell-based; conditions: Aff01 tested as fusion Aff02-0/Pe38 (SEQ ID NO: 5); different nanofitin concentrations
Procedure: as §5, §6

[7] = molecular target: T2, recombinant human protein hHER2 (R&D …); experiment: BLI (Octet), hHER2 on Protein A biosensors, steady state analysis
[8] = molecular target: T3, HER2/Fc chimeric protein (Homo sapiens, UniProt P04626); experiment: Competitive ELISA of Aff02 versus trastuzumab-biotin or pertuzumab-biotin; type: binding
T3 construct: Fc (immunoglobulin Fc fusion partner)
Text: A competitive ELISA assay has been developed in order to investigate if the epitope of the HER2/Neu antigen recognized by Aff02 polypeptide was distinct from the epitope recognized by the humanized monoclonal antibodies trastuzumab and pertuzumab, actually used in therapeutic treatments of HER2-positive tumors.
The first experiment, aimed at evaluating the quality of the assay, was a competitive ELISA assay carried out between trastuzumab and trastuzumab-biotin. Briefly, a Medisorp transparent plastic plate (96 wells, Thermo Scientific), was coated (64 wells) with 2.5 μg/mL of HER2/Fc chimeric protein in TBS pH 7.4 (1 h, RT). The wells were blocked with 0.5% BSA in TBS (1 h, RT).
At the end of the incubation, the plate was washed three times with 250 μL of TBS-T and incubated with Streptavidin-HRP 1:10000 in TBS-T (1 h at RT). The plate was washed again 3 times with TBS-T and developed 5 min with TMB reagent (100 μL). The reaction was blocked with 50 μL of sulfuric acid 2 M and read at 450 nm.
As positive control, the same experiment was repeated using an antibody anti RSGH TAG-HRP (1:4000) in place of streptavidin-HRP, in order to evaluate the curve affinity of Aff02 to HER2 receptor.
Briefly, a Medisorp transparent plastic plate (96 wells, Thermo Scientific) was coated (64 wells) with 2.5 μg/mL of Her2/Fc chimeric protein in TBS pH 7.4 (1 h, RT). The wells was blocked with 0.5% BSA in TBS (1 h, RT). […] At the end of the incubation, the plate was washed three times with 300 μL of TBS-T and incubated with Streptavidin-HRP 1:10000 or anti-RSGH TAG-HRP 1:4000 in TBS-T (1 h at RT). The plate was washed again 3 times with TBS-T and developed 5 min with TMB reagent (100 μL). The reaction was blocked with 50 μL of sulfuric acid 2 M and read at 450 nm.

[9] = parameters: species or system Balb/c nu/nu mice; conditions: mouse, in vivo
Procedure: In vivo imaging experiments were performed using the IVIS Spectrum In Vivo Imaging System (Perkin Elmer Inc.), equipped with 10 narrow band excitation filters (30 nm bandwidth) and 18 narrow band emission filters (20 nm bandwidth) spanning 430-850 nm.
In vivo optical imaging biodistribution of IRDye800CW-Aff02 was evaluated in healthy mice. Optical Imaging experiments on three healthy mice were performed using an IVIS Spectrum system after administration of IRDye800CW-Aff02 at a dose of 10 nmol/mouse, in an administration volume of 0.2 mL. The experiments were carried out at 15 min, 30 min, 1 h, 2 h, 4 h, 6 h, 24 h and 48 hours after intravenous administration of the conjugate.
Regions of interest (ROIs) were drawn on a reference background healthy region (hind leg's muscle) of the mouse and on whole body for each fluorescence image at every time point to evaluate signal intensity in the tissues, expressed as Average Radiant Efficiency (see FIG. 5, reporting the fluorescence signal curves of IRDye800CW-Aff02 administered 10 nmol/mouse in Balb/c nu/nu mice).
Pharmacokinetic analysis of the signal was performed to evaluate the half time of the tested product by using a mono-exponential decay model and the results are reported in Table 3:
After sacrifice, several organs were collected for the measure of residual fluorescence (after 48h). The measurements of fluorescence signal intensity have been obtained from the analysis of each organ selecting an area of interest (ROIs) at the center of each sample. The analyzed organs were: kidney, lung, spleen, liver, muscle and heart.

B1: affitin Aff02-0 (designed binder)
chain: MRGSHHHHHHGSVKVKFWGAGVEKEVDTSKITWVTRSGKYVIFTYDDNGKAGPGRVPEKDAPKELLDMLARAEREK
notes: also called unlabeled Aff02-0 affitin
koff ([1]; unlabeled affitin): 8.3 ± 0.1 × 10^−3 s^−1
kon ([1]; unlabeled affitin): 4.5 ± 0.1 × 10^5 M^−1s^−1
Kd [2]: 18 nM
koff [2]: 0.0083 s⁻¹
kon [2]: 450000 M⁻¹ s⁻¹

B2: Aff01: 64 aac anti-HER2 affitin, SEQ ID NO: 1 (protein)
chain: VKVKFWGAGVEKEVDTSKITWVTRSGKYVIFTYDDNGKAGPGRVPEKDAPKELLDMLARAEREK
binding to albumin [3]: absence of binding to albumin
cytotoxic induction (cell viability) on SK-BR-3 cells ([4]; Aff01 tested as fusion Aff02-0/Pe38 (SEQ ID NO: 5), different nanofitin concentrations): dose-dependent cytotoxic induction
cell internalization through HER2 receptor ([4]; concluded from cell death induction by Pe38 fusion): effective transport of Pe38 through HER2 receptor
affinity to HER2 [5]: nanomolar affinity
alteration of cell viability on MCF-7 cells [6]: no significant alterations

B3: IRDye800CW-Aff02 conjugate (designed binder)
chain: MRGSHHHHHHGSVKVKFWGAGVEKEVDTSKITWVTRSGKYVIFTYDDNGKAGPGRVPEKDAPKELLDMLARAEREKC
modifications: chain 1 pos 77: Cys carrying IRDye800CW through a maleimide thioether, written C
notes: Aff02 was reduced with TCEP, then coupled to IRDye800CW-maleimide at the C-terminal Cys
Kd [7]: 1.6 nM

B4: Aff02: 77 aac variant of SEQ ID NO: 1 with a Cys at the C-terminus and a hexahistidine tag at the N-terminus (protein)
chain: MRGSHHHHHHGSVKVKFWGAGVEKEVDTSKITWVTRSGKYVIFTYDDNGKAGPGRVPEKDAPKELLDMLARAEREKC
competition with trastuzumab and pertuzumab for binding to HER2, assay c / overall ([8]; antibody-biotin curves in presence or absence of Aff02, FIGS. 4a, 4b): no competition; also recorded: do not compete for binding to HER2
binding to HER2 receptor (ELISA) ([8]; assay a, FIG. 2): binders for HER2 receptor
Aff02 response (anti RSGH-Tag Ab detection) with increasing trastuzumab-biotin or pertuzumab-biotin, assay b ([8]; fixed 10 μg/mL Aff02, variable antibody-biotin, FIGS. 3a, 3b): negligible response decrease
epitope competition, assay a ([8]; variable Aff02 (0.01-10000 ng/mL) with 0.2 μg/mL trastuzumab-biotin or pertuzumab-biotin, FIG. 2): epitopes recognized by trastuzumab and pertuzumab are different from that recognized by Aff02

B5: IRDye800CW-Aff02: fluorophore IRDye800CW-maleimide conjugated to the C-terminal cysteine of affitin Aff02 (conjugate)
chain: MRGSHHHHHHGSVKVKFWGAGVEKEVDTSKITWVTRSGKYVIFTYDDNGKAGPGRVPEKDAPKELLDMLARAEREKC
modifications: cyclised or stapled
clearance pathway [9]: preferably cleared by the renal pathway
Half life in muscle ([9]; iv): 2.122 h
Half life in whole body ([9]; iv): 2.196 h
average half-life (muscle and whole body) ([9]; iv): 2.16 h
Kd (dissociation equilibrium constant) of the complex IRDye800CW-Aff02 conjugate/hHER2 ([1]; steady state analysis): in the nanomolar range

From US20230040008A1, “ANTI-HER2 POLYPEPTIDES DERIVATIVES AS NEW DIAGNOSTIC MOLECULAR PROBES” (BRACCO IMAGING S.P.A., priority 2019, published 2023)
